The target in test [1] is NprR(ΔHTH) (B. thuringiensis strain 407). In words: dynamic light scattering.
Test [2] has the same target. The experiment in a line: SEC. For orientation: SEC sorts molecules by how far they enter the pores of the column.
The target is the same in test [3]. The experiment in a line: crystal structure.
For test [4] the target is unchanged. In words: dynamic light scattering. This is another data set of the same source.
Test [5] shares this target. In words: SEC-MALS.
The target is the same in test [6]. The experiment in a line: SEC. The source holds these as a separate data set.
Test [7] has the same target. In words: ITC. On the technique in general: Isothermal titration calorimetry measures the heat released or taken up as one component is titrated into another.
Test [8] has as its target NprR(ΔHTH)(N407A/Y410A) (B. thuringiensis strain 407). The experiment in a line: ITC.
Test [9] concerns the target NprR(ΔHTH)(Y223A/F225A) (B. thuringiensis strain 407). The experiment in a line: ITC.
Test [10] deals with NprR(ΔHTH)(R126A) (B. thuringiensis strain 407). In words: ITC.
Test [11] has as its target NprR(ΔHTH)(Y223A/F225A) (B. thuringiensis strain 407). The experiment in a line: SEC.
Test [12] addresses full-length NprR (B. thuringiensis strain 407). The experiment in a line: dynamic light scattering.
The target is the same in test [13]. In words: SEC.
The target is the same in test [14]. The experiment in a line: dynamic light scattering. This is another data set of the same source.
For test [15] the target is unchanged. In words: SEC-MALS.

The stoichiometry N is a count of units in the complex or per binding partner. In the case of NprR(ΔHTH) (domain or fragment), the stoichiometry N in test [1] is 4; in [2] it was 2; in [3] it was 4; in test [4], 2; in test [5], 2; in [6] it was 2.
As usually defined, the Kd is the concentration at which binding is half-saturated. In test [7], NprX7 variant SKPDIVG-CO-NH (peptide) displayed a Kd of 5500 nM.
For the molecule NprX7 heptapeptide SKPDIVG, the Kd in test [8] came out at 100 nM; in test [7] it was 100 nM; in test [9], 100 nM; in [10], 640 nM.
Consider “NprR(ΔHTH)(Y223A/F225A) (domain or fragment)”, for which the stoichiometry N in [11] was 2.
On to full-length NprR (natural protein), for which the stoichiometry N turned out to be 4 in test [12], 2 in test [13], 2 in test [14] and 2 in test [15].
Turning to SNPDIYG [NprX7-III (SNPDIYG)], in test [7], the Kd is 80 nM.
Same read-out and setting: with YSSKPDIVG [NprX9n …] the figure was 220 nM; with SSKPDIVG [NprX8n octapeptide SSKPDIVG], 30 nM.
For WKPDTLG [NprX7 peptide (WKPDTLG) characteristic of groups V to VII], the Kd in test [7] stood at 3000 nM.
On to SRPDVLT [NprX7-IV (SRPDVLT)], for which, in test [7], the Kd came out at 6000 nM.
The same measure, in the same setting: to SKPDIVGQ [NprX8c SKPDIVGQ] belongs 1000 nM.
Regarding SKPDTYG [NprX7-II (SKPDTYG)], the Kd in [7] is 400 nM.

The values above are taken from PMC3763537.
